The results in this text go back to patent publication US20180303937A1, “A COMPOSITION FOR CONTROLLED RELEASE OF A BIOMOLECULE, METHOD OF PREPARATION AND USES THEREOF” (CENTRO DE NEUROCIENCIAS E BIOLOGIA CELULAR, priority 2015, published 2018).

For this data set, the system named is SC-1 mouse fibroblasts. The experiment in a line: Cytotoxicity of BSA-dsDNA51.7-AuNR (Celltiter-Glo ATP assay). Type of data set: cell-based. To be noted: 50 μg/mL NR; irradiation 1.25 to 2 W/cm^2, 2 min. On the procedure:
FIG. 7: Cytotoxicity of BSA-dsDNA51.7-AuNR. Mouse fibroblasts were seeded on a 96 well plate (4×10^3 cells/well), left to adhere for 24 h and then incubated with different concentrations of BSA-dsDNA51.7-AuNR for 4 h. After incubation, the cells were washed with medium to remove non-internalized AuNR. Some of the conditions were irradiated for 2 min with 1.25 or 2 W/cm^2. Then, the plate was left in the incubator for 24 h. The ATP production was measured by a Celltiter-Glo Luminescent Cell Viability Assay (Promega).
Cytotoxicity of BSA-dsDNA51.7-AuNR. SC-1 mouse fibroblasts were grown in DMEM supplemented with 10% fetal bovine serum (FBS), at 37° C. in a fully humidified air containing 5% CO2. To assess the cytotoxicity of gold NRs, fibroblasts were seeded on a 96 well plate (4×10^3 cells/well), left to adhere for 24 h and then incubated with BSA-dsDNA51.7-AuNR for 4 h. After incubation, the cells were washed with medium to remove non-internalized NR. In some conditions, after incubation with BSA-dsDNA51.7-AuNR, the cells were washed and irradiated with a fiber coupled Roithner laser (785 nm). Each well was placed below the end of the fibre and irradiated with a power density of 1.25 and 2 W/cm^2 for 2 min. Then cells were left in the incubator for 24 h and the ATP production was measured by a Celltiter-Glo Luminescent Cell Viability Assay (Promega).
(Cellular ATP, detected with luciferase, serves as a proxy for viable cell number.)

For “BSA-dsDNA51.7-AuNR: gold nanorods carrying BSA via dsDNA with melting temperature 51.7° C.”, the “cytotoxic effects (ATP production)” value is “do not show significant cytotoxic effects”.
